Literature values as cited in patent publication US20250304973A1, “HIGH-AFFINITY THROMBIN APTAMERS AND METHODS OF USE” (Ayass Bioscience LLC, priority 2024, published 2025).

Conditions: reversal of dabigatran

B1: Idarucizumab: a monoclonal antibody that binds to dabigatran and neutralizes its anticoagulant properties (antibody, chains of the INN, looked up, V domains shown)
VH: QVQLQESGPGLVKPSETLSLTCTVSGFSLTSYIVDWIRQPPGKGLEWIGVIWAGGSTGYNSALRSRVSITKDTSKNQFSLKLSSVTAADTAVYYCASAAYYSYYNYDGFAYWGQGTLVTVSS
VL: DVVMTQSPLSLPVTLGQPASISCKSSQSLLYTDGKTYLYWFLQRPGQSPRRLIYLVSKLDSGVPDRFSGSGSGTDFTLKISRVEAEDVGVYYCLQSTHFPHTFGGGTKVEIK
modifications: Fab
time to reversal of anticoagulant effect: this in ~2-4 hours
